Measurements: patent publication US20220306688A1 (EMORY UNIVERSITY, published 2022)

Target: T1, KRAS-G12V (Homo sapiens, UniProt P01116 1-189, limits assumed)
T1 construct: also called G12V mutant of KRAS
Experiment: disruption of the JAK1/KRAS-G12V interaction; the sentence names TR-FRET (FIG. 2B) and GST pull-down (FIG. 2C) and does not say which gave the value; competitor JAK1

B1: RasKi: 8-mer 603-610 (peptide)
peptide: MDYKDDEG
notes: It was co-expressed or transduced by lentivirus in some cell assays; also called 8-mer WT; 8-mer peptide
Question: B1 was tested. Which IC50 did it give?
Answer: 870 nM
